Columns and labels:
cyno FcRn/b2M [1] = target: T1, cyno FcRn/b2M (cyno, UniProt Q8SPV9 24-297; Q8SPW0 21-119, biotinylated); assay: SPR off-rate; pH 7.4 vs pH 6.0;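 further: surface plasmon resonance with diluted periplasmic extracts flowed over ligand surfaces, 120 s association and 600–3600 s dissociation at 25 °C, running buffer containing 150 mM NaCl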
T1 construct: bought recombinant biotinylated protein (Immunitrack ITF05 or ACRO FCM-C82W5); also called cFcRn; cFcRn/cb2M
Experimental: (§1) All kinetic measurements have been performed on ProteOn XPR36 (BioRad Laboratories, Inc.), MASS-2 (Sierra sensors, Gmbh) or SPR-32 (Bruker Corporation). […] The phytip purified periplasmic extracts were diluted 1:10 in running buffer (CPA+150 mM NaCl+0.005% Tw20 at pH 5.5, pH 6.0 or pH 7.4) and injected over the ligand surfaces (association: 120 s at 45 μL/min; dissociation: 600s-3600 s at 45 μL/min). Experiments were carried out at 25° C.

human FcRn/b2M [2] = target: T2, human FcRn/b2M (human, UniProt P61769 21-119, biotinylated); assay: SPR off-rate; pH 7.4 vs pH 6.0;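 further: surface plasmon resonance with diluted periplasmic extracts flowed over ligand surfaces, 120 s association and 600–3600 s dissociation at 25 °C, running buffer containing 150 mM NaCl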
T2 construct: bought recombinant biotinylated protein (ACRO FCM-H82W4 or Immunitrack ITF01); also called hFcRn; hFcRn/hb2M
Experimental: as §1

cyno FcRn/b2M [3] = target: T1, cyno FcRn/b2M; assay: SPR pH 6.0;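 further: surface plasmon resonance kinetics at 25 °C, diluted periplasmic extracts injected over immobilized ligand surfaces, 120 s association then 600–3600 s dissociation, running buffer containing 150 mM NaCl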
Experimental: as §1

human FcRn/b2M [4] = target: T2, human FcRn/b2M; assay: SPR pH 6.0
Experimental: as §1

cyno FcRn/b2M [5] = target: T1, cyno FcRn/b2M; assay: SPR pH 7.4;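 further: surface plasmon resonance kinetics, periplasmic extracts diluted 1:10 flowed over immobilized target at 25 °C, 120 s association then 600–3600 s dissociation, buffer with 150 mM NaCl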
Experimental: as §1

human FcRn/b2M [6] = target: T2, human FcRn/b2M; assay: SPR pH 7.4;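 further: surface plasmon resonance kinetics, periplasmic extracts diluted 1:10 flowed over immobilized target at 25 °C, 120 s association then 600–3600 s dissociation, buffer with 150 mM NaCl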
Experimental: as §1

human FcRn/b2M [7] = target: T2, human FcRn/b2M; assay: SPR pH 6.0; remark: listed apart in the source

T1 sequence (Q8SPV9 24-297 limits assumed, chain 1 of 2): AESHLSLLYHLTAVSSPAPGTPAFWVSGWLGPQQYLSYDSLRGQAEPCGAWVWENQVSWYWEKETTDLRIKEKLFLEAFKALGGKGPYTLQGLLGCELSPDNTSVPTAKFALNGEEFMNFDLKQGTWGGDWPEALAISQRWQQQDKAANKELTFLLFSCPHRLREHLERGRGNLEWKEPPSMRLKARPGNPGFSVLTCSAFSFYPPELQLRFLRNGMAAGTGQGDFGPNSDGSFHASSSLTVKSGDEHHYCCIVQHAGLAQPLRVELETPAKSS
T1 sequence (Q8SPW0 21-119 limits assumed, chain 2 of 2): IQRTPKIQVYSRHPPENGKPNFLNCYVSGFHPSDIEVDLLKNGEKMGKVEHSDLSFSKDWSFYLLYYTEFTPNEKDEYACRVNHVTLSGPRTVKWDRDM

Row | Binder | kd ratio pH 7.4/6.0 (cyno FcRn/b2M [1]) | kd ratio pH 7.4/6.0 (human FcRn/b2M [2]) | koff (cyno FcRn/b2M [3]) [s⁻¹] | koff (human FcRn/b2M [4]) [s⁻¹] | koff (cyno FcRn/b2M [5]) [s⁻¹] | koff (human FcRn/b2M [6]) [s⁻¹] | koff (human FcRn/b2M [7]) [s⁻¹]
1 | T0263018B11 T96Y (VHH, name in Kabat numbering, FLAG3-His6 tagged) VHH: EVQLVESGGGVVQPGGSLRLSCAASGFTFSSYAMYWVRQAPGKGLEWVSAISSGGGSTDYADSVKGRFTISRDNSKNTLYLQMNSLRPEDTALYYCAADYLYTSLTWYSYWGQGTLVTVSS | 50 | 45 | 0.00035 | 0.00054 | 0.017 | 0.024 | 
2 | T0263018B11 W100cV (VHH, name in Kabat numbering, FLAG3-His6 tagged) VHH: EVQLVESGGGVVQPGGSLRLSCAASGFTFSSYAMYWVRQAPGKGLEWVSAISSGGGSTDYADSVKGRFTISRDNSKNTLYLQMNSLRPEDTALYYCAADTLYTSLTVYSYWGQGTLVTVSS | 76 | 61 | 0.0024 | 0.0082 | 0.18 | 0.5 | 
3 | T0263018B11 W100cG (VHH, name in Kabat numbering, FLAG3-His6 tagged) VHH: EVQLVESGGGVVQPGGSLRLSCAASGFTFSSYAMYWVRQAPGKGLEWVSAISSGGGSTDYADSVKGRFTISRDNSKNTLYLQMNSLRPEDTALYYCAADTLYTSLTGYSYWGQGTLVTVSS | 75 | 46 | 0.0051 | 0.0092 | 0.38 | 0.42 | 
4 | T0263018B11 W100cQ (VHH, name in Kabat numbering, FLAG3-His6 tagged) VHH: EVQLVESGGGVVQPGGSLRLSCAASGFTFSSYAMYWVRQAPGKGLEWVSAISSGGGSTDYADSVKGRFTISRDNSKNTLYLQMNSLRPEDTALYYCAADTLYTSLTQYSYWGQGTLVTVSS | 85 | 56 | 0.0059 | 0.009 | 0.5 | 0.5 | 
5 | T0263018B11 Y32L (VHH, name in Kabat numbering, FLAG3-His6 tagged) VHH: EVQLVESGGGVVQPGGSLRLSCAASGFTFSSLAMYWVRQAPGKGLEWVSAISSGGGSTDYADSVKGRFTISRDNSKNTLYLQMNSLRPEDTALYYCAADTLYTSLTWYSYWGQGTLVTVSS | 46 | 49 | 0.0084 | 0.013 | 0.39 | 0.61 | 
6 | T0263018B11 T100bL (VHH, name in Kabat numbering, FLAG3-His6 tagged) VHH: EVQLVESGGGVVQPGGSLRLSCAASGFTFSSYAMYWVRQAPGKGLEWVSAISSGGGSTDYADSVKGRFTISRDNSKNTLYLQMNSLRPEDTALYYCAADTLYTSLLWYSYWGQGTLVTVSS | 56 | 38 | 0.0032 | 0.0037 | 0.18 | 0.14 | 
7 | T0263018B11 W100cD (VHH, name in Kabat numbering, FLAG3-His6 tagged) VHH: EVQLVESGGGVVQPGGSLRLSCAASGFTFSSYAMYWVRQAPGKGLEWVSAISSGGGSTDYADSVKGRFTISRDNSKNTLYLQMNSLRPEDTALYYCAADTLYTSLTDYSYWGQGTLVTVSS | 45 | 19 | 0.003 | 0.0073 | 0.13 | 0.14 | 
8 | T0263018B11 Y32F (VHH, name in Kabat numbering, FLAG3-His6 tagged) VHH: EVQLVESGGGVVQPGGSLRLSCAASGFTFSSFAMYWVRQAPGKGLEWVSAISSGGGSTDYADSVKGRFTISRDNSKNTLYLQMNSLRPEDTALYYCAADTLYTSLTWYSYWGQGTLVTVSS | 46 | 39 | 0.00042 | 0.00066 | 0.019 | 0.026 | 
9 | T0263018B11 W100cA (VHH, name in Kabat numbering, FLAG3-His6 tagged) VHH: EVQLVESGGGVVQPGGSLRLSCAASGFTFSSYAMYWVRQAPGKGLEWVSAISSGGGSTDYADSVKGRFTISRDNSKNTLYLQMNSLRPEDTALYYCAADTLYTSLTAYSYWGQGTLVTVSS | 81 | 50 | 0.0062 | 0.01 | 0.5 | 0.5 | 
10 | T0263018B11 W100cL (VHH, name in Kabat numbering, FLAG3-His6 tagged) VHH: EVQLVESGGGVVQPGGSLRLSCAASGFTFSSYAMYWVRQAPGKGLEWVSAISSGGGSTDYADSVKGRFTISRDNSKNTLYLQMNSLRPEDTALYYCAADTLYTSLTLYSYWGQGTLVTVSS | 84 | 72 | 0.0051 | 0.0064 | 0.43 | 0.46 | 
11 | T0263018B11 W100cF (VHH, name in Kabat numbering, FLAG3-His6 tagged) VHH: EVQLVESGGGVVQPGGSLRLSCAASGFTFSSYAMYWVRQAPGKGLEWVSAISSGGGSTDYADSVKGRFTISRDNSKNTLYLQMNSLRPEDTALYYCAADTLYTSLTFYSYWGQGTLVTVSS | 63 | 44 | 0.0024 | 0.0036 | 0.15 | 0.16 | 
12 | T0263018B11 W100cY (VHH, name in Kabat numbering, FLAG3-His6 tagged) VHH: EVQLVESGGGVVQPGGSLRLSCAASGFTFSSYAMYWVRQAPGKGLEWVSAISSGGGSTDYADSVKGRFTISRDNSKNTLYLQMNSLRPEDTALYYCAADTLYTSLTYYSYWGQGTLVTVSS | 50 | 43 | 0.0015 | 0.0021 | 0.075 | 0.09 | 
13 | T0263018B11 Y32Q (VHH, name in Kabat numbering, FLAG3-His6 tagged) VHH: EVQLVESGGGVVQPGGSLRLSCAASGFTFSSQAMYWVRQAPGKGLEWVSAISSGGGSTDYADSVKGRFTISRDNSKNTLYLQMNSLRPEDTALYYCAADTLYTSLTWYSYWGQGTLVTVSS | 75 | 60 | 0.0013 | 0.0023 | 0.099 | 0.14 | 
14 | T0263018B11 T100bE (VHH, name in Kabat numbering, FLAG3-His6 tagged) VHH: EVQLVESGGGVVQPGGSLRLSCAASGFTFSSYAMYWVRQAPGKGLEWVSAISSGGGSTDYADSVKGRFTISRDNSKNTLYLQMNSLRPEDTALYYCAADTLYTSLEWYSYWGQGTLVTVSS | 51 | 45 | 0.00049 | 0.00071 | 0.025 | 0.032 | 

Now from value to binder:

Row | kd ratio pH 7.4/6.0 (cyno FcRn/b2M [1]) | kd ratio pH 7.4/6.0 (human FcRn/b2M [2]) | koff (cyno FcRn/b2M [3]) [s⁻¹] | koff (human FcRn/b2M [4]) [s⁻¹] | koff (cyno FcRn/b2M [5]) [s⁻¹] | koff (human FcRn/b2M [6]) [s⁻¹] | koff (human FcRn/b2M [7]) [s⁻¹] | Binder
15 |  |  |  |  |  |  | 0.029 | T026301050 (VHH, name in Kabat numbering, tagless) VHH: EVQLVESGGGVVQPGGSLRLSCAASTFTFSSYAMYWVRQAPGKGLEWVSAISQGGGSTDYADSVKGRFTISRDNSKNTLYLQMNSLRPEDTALYYCAADTLYTDLTWYSYWGQGTLVTVSS
16 | 46 | 33 | 0.0035 | 0.0043 | 0.16 | 0.14 |  | T0263018B11 Y35F (VHH, name in Kabat numbering, FLAG3-His6 tagged) VHH: EVQLVESGGGVVQPGGSLRLSCAASGFTFSSYAMFWVRQAPGKGLEWVSAISSGGGSTDYADSVKGRFTISRDNSKNTLYLQMNSLRPEDTALYYCAADTLYTSLTWYSYWGQGTLVTVSS
17 | 84 | 75 | 0.00026 | 0.00053 | 0.022 | 0.04 |  | T0263018B11 Y98F (VHH, name in Kabat numbering, FLAG3-His6 tagged) VHH: EVQLVESGGGVVQPGGSLRLSCAASGFTFSSYAMYWVRQAPGKGLEWVSAISSGGGSTDYADSVKGRFTISRDNSKNTLYLQMNSLRPEDTALYYCAADTLFTSLTWYSYWGQGTLVTVSS
18 | 60 | 12 | 0.0022 | 0.004 | 0.13 | 0.048 |  | T0263018B11 Y32V (VHH, name in Kabat numbering, FLAG3-His6 tagged) VHH: EVQLVESGGGVVQPGGSLRLSCAASGFTFSSVAMYWVRQAPGKGLEWVSAISSGGGSTDYADSVKGRFTISRDNSKNTLYLQMNSLRPEDTALYYCAADTLYTSLTWYSYWGQGTLVTVSS
19 | 52 | 35 | 0.0028 | 0.0054 | 0.14 | 0.19 |  | T0263018B11 Y32S (VHH, name in Kabat numbering, FLAG3-His6 tagged) VHH: EVQLVESGGGVVQPGGSLRLSCAASGFTFSSSAMYWVRQAPGKGLEWVSAISSGGGSTDYADSVKGRFTISRDNSKNTLYLQMNSLRPEDTALYYCAADTLYTSLTWYSYWGQGTLVTVSS
20 | 50 | 38 | 0.0012 | 0.0017 | 0.06 | 0.065 |  | T0263018B11 Y102T (VHH, name in Kabat numbering, FLAG3-His6 tagged) VHH: EVQLVESGGGVVQPGGSLRLSCAASGFTFSSYAMYWVRQAPGKGLEWVSAISSGGGSTDYADSVKGRFTISRDNSKNTLYLQMNSLRPEDTALYYCAADTLYTSLTWYSTWGQGTLVTVSS
21 | 60 | 42 | 0.0035 | 0.0045 | 0.21 | 0.19 |  | T0263018B11 Y32T (VHH, name in Kabat numbering, FLAG3-His6 tagged) VHH: EVQLVESGGGVVQPGGSLRLSCAASGFTFSSTAMYWVRQAPGKGLEWVSAISSGGGSTDYADSVKGRFTISRDNSKNTLYLQMNSLRPEDTALYYCAADTLYTSLTWYSYWGQGTLVTVSS
22 | 34 | 26 | 0.0017 | 0.0023 | 0.057 | 0.06 |  | T0263018B11 Y100dF (VHH, name in Kabat numbering, FLAG3-His6 tagged) VHH: EVQLVESGGGVVQPGGSLRLSCAASGFTFSSYAMYWVRQAPGKGLEWVSAISSGGGSTDYADSVKGRFTISRDNSKNTLYLQMNSLRPEDTALYYCAADTLYTSLTWFSYWGQGTLVTVSS
